Laboratory results reported in US20230265187A1 (published 2023).

What was measured:
[1] = biological target: T1, His-tagged cynomolgus monkey TIGIT (Acro Biosystems #TIT-05223) (cynomolgus monkey, UniProt A0A7N9I9V4 89-209); assay: SPR (Carterra LSA), antibody captured, His-TIGIT analyte
T1 construct: Bought protein; also called cyno TIGIT; cynomolgus TIGIT; not shown: His tag

[2] = biological target: T2, his-tagged human TIGIT (Acro Biosystems #TIT-H52H3) (human, UniProt Q495A1 22-141); assay: as above
T2 construct: Bought protein; also called His-tagged-TIGIT (human); not shown: his tag
T2 sequence (looked up): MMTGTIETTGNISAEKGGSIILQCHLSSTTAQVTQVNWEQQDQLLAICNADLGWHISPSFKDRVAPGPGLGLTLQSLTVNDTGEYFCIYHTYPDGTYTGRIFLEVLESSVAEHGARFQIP

[3] = biological target: T1, His-tagged cynomolgus monkey TIGIT …; assay: SPR (Carterra LSA), antibody captured, His-TIGIT analyte; repeat

T1 sequence (A0A7N9I9V4 entry or part of it): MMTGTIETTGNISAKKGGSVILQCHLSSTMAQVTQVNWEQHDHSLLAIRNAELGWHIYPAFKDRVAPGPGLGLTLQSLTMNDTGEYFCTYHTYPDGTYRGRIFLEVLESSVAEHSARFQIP

Kd [1]: 16.1 nM
Kd [2]: 0.202 nM
Kd [3]: 3.4 nM
B1: benchmark 22G2 (antibody, V domains shown)
VH: QVHLQESGPGLVKPSETLSLTCTVSGGSVSSGIYYWSWIRQPPGKGLEWIGYIYYSGSTNYNPSLKSRVTISVDTSKNQFSLKLSSVTAADTAVYYCARDYYVSGNYYNVDYYFFGVDVWGQGTTVTVSS
VL: EIVLTQSPATLSLSPGERATLSCRASQSVSSYLAWYQQKPGQAPRLLIYDASNRATGIPARFSGSGSGTDFTLTISSLEPEDFAVYYCQQRSNWPPLFTFGPGTKVDIK
